The text below walks through data of PMC8263624, “Asymmetric reconstruction of mammalian reovirus reveals interactions among RNA, transcriptional factor µ2 and capsid proteins” (Nature Communications, 2021).

The chains are these.
B1: RNA-dependent RNA polymerase (RdRp) λ3 (enzyme)
chain: MSSMILTQFGPFIESISGITDQSNDVFEDAAKAFSMFTRSDVYKALDEIPFSDDAMLPIPPTIYTKPSHDSYYYIDALNRVRRKTYQGPDDVYVPNCSIVELLEPHETLTSYGRLSEAIENRAKDGDSQARIATTYGRIAESQARQIKAPLEKFVLALLVAEAGGSLYDPVLQKYDEIPDLSHNCPLWCFREICRHISGPLPDRAPYLYLSAGVFWLMSPRMTSAIPPLLSDLVNLAILQQTAGLDPSLVKLGVQICLHAAASSSYSWFILKTKSIFPQNTLHSMYESLEGGYCPNLEWLEPRSDYKFMYMGVMPLSAKYARSAPSNDKKARELGEKYGLSSVVGELRKRTKTYVKHDFASVRYIRDAMACTSGIFLVRTPTETVLQEYTQSPEIKVPIPQKDWTGPIGEIRILKDTTSSIARYLYRTWYLAAARMAAQPRTWDPLFQAIMRSQYVTARGGSGAALRESLYAINVSLPDFKGLPVKAATKIFQAAQLANLPFSHTSVAILADTSMGLRNQVQRRPRSIMPLNVPQQQVSAPHTLTADYINYHMNLSPTSGSAVIEKVIPLGVYASSPPNQSINIDISACDASITWDFFLSVIMAAIHEGVASSSIGKPFMGVPASIVNDESVVGVRAARPISGMQNMIQHLSKLYKRGFSYRVNDSFSPGNDFTHMTTTFPSGSTATSTEHTANNSTMMETFLTVWGPEHTDDPDVLRLMKSLTIQRNYVCQGDDGLMIIDGTTAGKVNSETIQNDLELISKYGEEFGWKYDIAYDGTAEYLKLYFIFGCRIPNLSRHPIVGKERANSSAEEPWPAILDQIMGVFFNGVHDGLQWQRWIRYSWALCCAFSRQRTMIGESVGYLQYPMWSFVYWGLPLVKAFGSDPWIFSWYMPTGDLGMYSWISLIRPLMTRWMVANGYVTDRCSTVFGNADYRRCFNELKLYQGYYMAQLPRNPKKSGRAASREVREQFTQALSDYLMQNPELKSRVLRGRSEWEKYGAGIIHNPPSLFDVPHKWYQGAQEAAIATREELAEMDETLMRARRHSYSSFSKLLEAYLLVKWRMCEAREPSVDLRLPLCAGIDPLNSDPFLKMVSVGPMLQSTRKYFAQTLFMAKTVSGLDVNAIDSALLRLRTLGADKKALTAQLLMVGLQESEADALAGKIMLQDVNTVQLARVVNLAVPDTWMSLDFDSMFKHHVKLLPKDGRHLNTDIPPRMGWLRAILRFLGAGMVMTATGVAVDIYLEDIHGGGRSLGQRFMTWMRQEGRSA
notes: RdRp λ3 of mammalian reovirus serotype Dearing 3, native in the virus particle; domains stated as residues 1-386, 387-556 and 595-690, 557-594 and 691-792, 793-901, 902-1267; Part of the transcribing enzyme complex (TEC) with µ2; ten TECs in each particle

For assay [1], the target named is T1, capsid shell protein (CSP) λ1 (Mammalian reovirus serotype Dearing 3, UniProt P15024 1-1275).
T1 construct: capsid shell protein λ1 of mammalian reovirus serotype Dearing 3, native in the virus particle; 120 copies in each particle as λ1A/λ1B dimers; five pairs (1-5) around each vertex; also called λ1A; λ1B
T1 sequence: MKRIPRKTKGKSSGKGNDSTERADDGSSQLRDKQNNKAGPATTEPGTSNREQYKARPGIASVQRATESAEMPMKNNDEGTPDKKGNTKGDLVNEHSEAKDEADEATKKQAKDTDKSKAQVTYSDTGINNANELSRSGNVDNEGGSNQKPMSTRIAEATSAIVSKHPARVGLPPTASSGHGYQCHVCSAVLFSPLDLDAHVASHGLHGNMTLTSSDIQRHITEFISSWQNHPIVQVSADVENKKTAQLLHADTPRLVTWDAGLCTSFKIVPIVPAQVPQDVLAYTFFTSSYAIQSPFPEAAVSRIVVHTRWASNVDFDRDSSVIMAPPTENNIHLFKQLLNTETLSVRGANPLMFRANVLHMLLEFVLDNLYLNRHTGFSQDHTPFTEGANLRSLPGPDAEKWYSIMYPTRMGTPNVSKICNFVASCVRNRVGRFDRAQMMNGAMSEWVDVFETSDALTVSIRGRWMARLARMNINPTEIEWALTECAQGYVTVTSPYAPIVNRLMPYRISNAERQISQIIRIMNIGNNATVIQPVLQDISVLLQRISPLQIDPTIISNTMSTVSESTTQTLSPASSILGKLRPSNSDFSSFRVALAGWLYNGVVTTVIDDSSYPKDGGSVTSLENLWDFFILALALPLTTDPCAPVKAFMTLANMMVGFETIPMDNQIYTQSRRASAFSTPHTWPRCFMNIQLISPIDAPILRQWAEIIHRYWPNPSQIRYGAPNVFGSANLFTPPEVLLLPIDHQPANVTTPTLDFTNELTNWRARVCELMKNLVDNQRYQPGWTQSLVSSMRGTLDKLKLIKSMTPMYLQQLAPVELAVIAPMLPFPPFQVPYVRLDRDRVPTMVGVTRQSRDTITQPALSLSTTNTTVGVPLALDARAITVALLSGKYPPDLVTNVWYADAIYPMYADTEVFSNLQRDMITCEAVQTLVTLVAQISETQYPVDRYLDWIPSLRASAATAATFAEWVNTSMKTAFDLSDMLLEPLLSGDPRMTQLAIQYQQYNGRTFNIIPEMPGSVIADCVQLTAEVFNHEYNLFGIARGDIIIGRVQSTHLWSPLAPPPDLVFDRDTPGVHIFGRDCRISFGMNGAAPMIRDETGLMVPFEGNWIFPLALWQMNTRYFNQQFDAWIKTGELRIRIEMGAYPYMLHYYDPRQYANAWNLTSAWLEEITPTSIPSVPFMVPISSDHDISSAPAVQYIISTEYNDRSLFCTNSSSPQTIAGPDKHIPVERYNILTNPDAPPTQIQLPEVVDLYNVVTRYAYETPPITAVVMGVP
The experiment in a line: cryo-EM structure; asymmetric (C1) vertex sub-particle reconstructions of native MRV ISVP at 3.3 Å, asymmetric full ISVP at 4.3 Å; isolated virus particles in PBS pH 7.4; proteins assembled in the particle, in situ. The settings on record: both partners purified.

Assay [2] deals with B1. Described as above. The settings on record: both partners purified.

Consider B1, for which the binding result in assay [1] is “binds”.

B2: RdRp-bound nucleoside triphosphatase μ2 (enzyme)
chain: MAYIAVPAVVDSRSSEAIGLLESFGVDAGADANDVSYQDHDYVLDQLQYMLDGYEAGDVIDALVHKNWLHHSVYCLLPPKSQLLEYWKSNPSAIPDNVDRRLRKRLMLKKDLRKDDEYNQLARAFKISDVYAPLISSTTSPMTMIQNLNRGEIVYTTTDRVIGARILLYAPRKYYASTLSFTMTKCIIPFGKEVGRVPHSRFNVGTFPSIATPKCFVMSGVDIESIPNEFIKLFYQRVKSVHANILNDISPQIVSDMINRKRLRVHTPSDRRAAQLMHLPYHVKRGASHVDVYKVDVVDMLFEVVDVADGLRNVSRKLTMHTVPVCILEMLGIEIADYCIRQEDGMLTDWFLLLTMLSDGLTDRRTHCQYLMNPSSVPPDVILNISITGFINRHTIDVMPDIYDFVKPIGAVLPKGSFKSTIMRVLDSISILGIQIMPRAHVVDSDEVGEQMEPTFEQAVMEIYKGIAGVDSLDDLIKWVLNSDLIPHDDRLGQLFQAFLPLAKDLLAPMARKFYDNSMSEGRLLTFAHADSELLNANYFGHLLRLKIPYITEVNLMIRKNREGGELFQLVLSYLYKMYATSAQPKWFGSLLRLLICPWLHMEKLIGEADPASTSAEIGWHIPREQLMQDGWCGCEDGFIPYVSIRAPRLVIEELMEKNWGQYHAQVIVTDQLVVGEPRRVSAKAVIKGNHLPVKLVSRFACFTLTAKYEMRLSCGHSTGRGAAYSARLAFRSDLA
notes: NTPase μ2 of mammalian reovirus serotype Dearing 3, native in the virus particle; 736 residues in all, 680 modelled; RBD 1-264, NTPase domain 265-607, CTD 608-736; also called NTPase; NTPase μ2
As to B2, the binding result in assay [2] and in assay [1] was “binds” each time.
